Results published in patent US20170115280A1.

What was measured:
[1] = molecular target: reconstituted nascent HDL (rHDL) particle made with isolated human apoA-I (human) (UniProt P02647); test: SPR (BIAcore 3000), rHDL immobilized on CM5 chip, apparent Kd, 1:1 binding with drifting baseline
[2] = molecular target: reconstituted nascent HDL (rHDL) particle made with isolated human apoA-I (human) (UniProt P02647); test: SPR (BIAcore 3000), rHDL immobilized on CM5 chip, rPON1 500-2000 nM in flow
[3] = molecular target: reconstituted nascent HDL (rHDL) particle made with isolated human apoA-I (human) (UniProt P02647); test: SPR, rHDL immobilized on CM5 chip

Chain of reconstituted nascent HDL (rHDL) particle made with isolated human apoA-I (human) (P02647 25-267 limits assumed): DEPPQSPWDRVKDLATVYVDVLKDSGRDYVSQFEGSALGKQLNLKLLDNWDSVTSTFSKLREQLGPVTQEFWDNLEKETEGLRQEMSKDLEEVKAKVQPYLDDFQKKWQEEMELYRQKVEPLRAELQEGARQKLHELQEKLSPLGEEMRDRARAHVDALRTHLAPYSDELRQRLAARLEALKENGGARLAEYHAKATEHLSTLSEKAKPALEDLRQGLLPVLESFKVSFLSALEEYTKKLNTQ

Substance	Kd [1]	koff [2]	kon [2]	fold less binding capacity compared with rPON1 WT [3]
rPON1 pan E mutant (Leu9→Glu9, Tyr185→Glu185 and Tyr293→Glu293) with C-terminal His8 tag (enzyme)	59 µM	0.05 s⁻¹	850 M⁻¹ s⁻¹	–
rPON1 pan K mutant (Leu9→Lys9, Tyr185→Lys185 and Tyr293→Lys293) with C-terminal His8 tag (enzyme)	–	6e-05 s⁻¹	–	1000 fold
recombinant paraoxonase 1 (PON1) variant G3C9, His-tagged (rPON1 WT) (enzyme)	0.00071 µM	8.5e-07 s⁻¹	1200 M⁻¹ s⁻¹	–
